Assay results reported in IntAct's records for PubMed 19759058.

Tests used:
casp3_mouse Casp3 [1] = target: T1, casp3_mouse Casp3 (UniProt P70677)
T1 sequence: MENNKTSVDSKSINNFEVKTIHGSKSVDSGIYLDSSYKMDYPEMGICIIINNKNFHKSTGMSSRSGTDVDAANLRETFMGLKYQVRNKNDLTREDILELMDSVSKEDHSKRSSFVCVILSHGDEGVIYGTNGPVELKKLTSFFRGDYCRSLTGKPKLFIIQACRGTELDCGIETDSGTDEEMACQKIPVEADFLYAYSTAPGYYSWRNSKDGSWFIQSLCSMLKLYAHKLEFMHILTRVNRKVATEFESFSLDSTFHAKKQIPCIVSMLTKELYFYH

casp7_mouse Casp7 = target: T2, casp7_mouse Casp7 (UniProt P97864)
T2 sequence: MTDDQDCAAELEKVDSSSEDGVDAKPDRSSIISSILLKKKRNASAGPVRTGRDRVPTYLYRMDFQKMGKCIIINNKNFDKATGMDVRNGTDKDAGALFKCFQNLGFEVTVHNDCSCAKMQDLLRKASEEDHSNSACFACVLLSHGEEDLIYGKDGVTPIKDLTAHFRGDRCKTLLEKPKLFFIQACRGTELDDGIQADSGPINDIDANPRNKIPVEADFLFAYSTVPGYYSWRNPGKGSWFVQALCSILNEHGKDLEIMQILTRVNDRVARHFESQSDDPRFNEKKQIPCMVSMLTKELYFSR

casp3_mouse Casp3 [2] = target: T1, casp3_mouse Casp3; remark: listed apart in the source

Substance | effect of a mutation on the interaction (casp3_mouse Casp3 [1]) | effect of a mutation on the interaction (casp7_mouse Casp7) | effect of a mutation on the interaction (casp3_mouse Casp3 [2])
Small ribosomal subunit protein uS13 (Mus musculus) (from UniProt P62270) K88A | increasing interaction | decreasing interaction | –
Small ribosomal subunit protein uS13 (Mus musculus) (from UniProt P62270) Q87A | – | – | increasing interaction
